Experimental data as given in patent publication US20180094075A1 (Pfizer, published 2018).

What was measured:
[1] = biological target: human PTK7 expressed on cells (cancer cell lines with endogenous PTK7; HEK293T-PTK7 over-expressing cells) (human) (UniProt Q13308); assay: flow cytometry, Hs578T cells, 10 µg/ml Ab
[2] = biological target: human PTK7 expressed on cells (cancer cell lines with endogenous PTK7; HEK293T-PTK7 over-expressing cells) (human) (UniProt Q13308); assay: flow cytometry, BT-549 cells, 10 µg/ml Ab
[3] = biological target: human PTK7 expressed on cells (cancer cell lines with endogenous PTK7; HEK293T-PTK7 over-expressing cells) (human) (UniProt Q13308); assay: flow cytometry, H2110 cells, 10 µg/ml Ab
[4] = biological target: human PTK7 expressed on cells (cancer cell lines with endogenous PTK7; HEK293T-PTK7 over-expressing cells) (human) (UniProt Q13308); assay: flow cytometry, H69 cells, 10 µg/ml Ab
[5] = biological target: human PTK7 expressed on cells (cancer cell lines with endogenous PTK7; HEK293T-PTK7 over-expressing cells) (human) (UniProt Q13308); assay: flow cytometry, RPMI8226 cells, 10 µg/ml Ab
[6] = biological target: human PTK7 expressed on cells (cancer cell lines with endogenous PTK7; HEK293T-PTK7 over-expressing cells) (human) (UniProt Q13308); assay: flow cytometry, HCT116 cells, 10 µg/ml Ab
[7] = biological target: human PTK7 expressed on cells (cancer cell lines with endogenous PTK7; HEK293T-PTK7 over-expressing cells) (human) (UniProt Q13308); assay: flow cytometry, HCC827 cells, 10 µg/ml Ab
[8] = biological target: human PTK7 expressed on cells (cancer cell lines with endogenous PTK7; HEK293T-PTK7 over-expressing cells) (human) (UniProt Q13308); assay: flow cytometry, U937 cells, 10 µg/ml Ab
[9] = biological target: human PTK7 expressed on cells (cancer cell lines with endogenous PTK7; HEK293T-PTK7 over-expressing cells) (human) (UniProt Q13308); assay: flow cytometry, BxPC3 cells, 10 µg/ml Ab
[10] = biological target: human PTK7 expressed on cells (cancer cell lines with endogenous PTK7; HEK293T-PTK7 over-expressing cells) (human) (UniProt Q13308); assay: flow cytometry, K562 cells, 10 µg/ml Ab
[11] = biological target: human PTK7 expressed on cells (cancer cell lines with endogenous PTK7; HEK293T-PTK7 over-expressing cells) (human) (UniProt Q13308); assay: flow cytometry, RL cells, 10 µg/ml Ab
[12] = biological target: human PTK7 expressed on cells (cancer cell lines with endogenous PTK7; HEK293T-PTK7 over-expressing cells) (human) (UniProt Q13308); assay: flow cytometry, MDAMB436 cells, 10 µg/ml Ab
[13] = biological target: human PTK7 expressed on cells (cancer cell lines with endogenous PTK7; HEK293T-PTK7 over-expressing cells) (human) (UniProt Q13308); assay: flow cytometry, DMS79 cells, 10 µg/ml Ab
[14] = biological target: human PTK7 expressed on cells (cancer cell lines with endogenous PTK7; HEK293T-PTK7 over-expressing cells) (human) (UniProt Q13308); assay: flow cytometry, TF1a cells, 10 µg/ml Ab
[15] = biological target: human PTK7 expressed on cells (cancer cell lines with endogenous PTK7; HEK293T-PTK7 over-expressing cells) (human) (UniProt Q13308); assay: flow cytometry, Raji cells, 10 µg/ml Ab
[16] = biological target: human PTK7 expressed on cells (cancer cell lines with endogenous PTK7; HEK293T-PTK7 over-expressing cells) (human) (UniProt Q13308); assay: flow cytometry, HCC70 cells, 10 µg/ml Ab
[17] = biological target: human PTK7 expressed on cells (cancer cell lines with endogenous PTK7; HEK293T-PTK7 over-expressing cells) (human) (UniProt Q13308); assay: flow cytometry, H1975 cells, 10 µg/ml Ab
[18] = biological target: human PTK7 expressed on cells (cancer cell lines with endogenous PTK7; HEK293T-PTK7 over-expressing cells) (human) (UniProt Q13308); assay: flow cytometry, DMS114 cells, 10 µg/ml Ab
[19] = biological target: human PTK7 expressed on cells (cancer cell lines with endogenous PTK7; HEK293T-PTK7 over-expressing cells) (human) (UniProt Q13308); assay: flow cytometry, H526 cells, 10 µg/ml Ab
[20] = biological target: human PTK7 expressed on cells (cancer cell lines with endogenous PTK7; HEK293T-PTK7 over-expressing cells) (human) (UniProt Q13308); assay: flow cytometry, EKVX cells, 10 µg/ml Ab

human PTK7 expressed on cells (cancer cell lines with endogenous PTK7; HEK293T-PTK7 over-expressing cells) (human), sequence (Q13308 31-1070 L93P limits assumed): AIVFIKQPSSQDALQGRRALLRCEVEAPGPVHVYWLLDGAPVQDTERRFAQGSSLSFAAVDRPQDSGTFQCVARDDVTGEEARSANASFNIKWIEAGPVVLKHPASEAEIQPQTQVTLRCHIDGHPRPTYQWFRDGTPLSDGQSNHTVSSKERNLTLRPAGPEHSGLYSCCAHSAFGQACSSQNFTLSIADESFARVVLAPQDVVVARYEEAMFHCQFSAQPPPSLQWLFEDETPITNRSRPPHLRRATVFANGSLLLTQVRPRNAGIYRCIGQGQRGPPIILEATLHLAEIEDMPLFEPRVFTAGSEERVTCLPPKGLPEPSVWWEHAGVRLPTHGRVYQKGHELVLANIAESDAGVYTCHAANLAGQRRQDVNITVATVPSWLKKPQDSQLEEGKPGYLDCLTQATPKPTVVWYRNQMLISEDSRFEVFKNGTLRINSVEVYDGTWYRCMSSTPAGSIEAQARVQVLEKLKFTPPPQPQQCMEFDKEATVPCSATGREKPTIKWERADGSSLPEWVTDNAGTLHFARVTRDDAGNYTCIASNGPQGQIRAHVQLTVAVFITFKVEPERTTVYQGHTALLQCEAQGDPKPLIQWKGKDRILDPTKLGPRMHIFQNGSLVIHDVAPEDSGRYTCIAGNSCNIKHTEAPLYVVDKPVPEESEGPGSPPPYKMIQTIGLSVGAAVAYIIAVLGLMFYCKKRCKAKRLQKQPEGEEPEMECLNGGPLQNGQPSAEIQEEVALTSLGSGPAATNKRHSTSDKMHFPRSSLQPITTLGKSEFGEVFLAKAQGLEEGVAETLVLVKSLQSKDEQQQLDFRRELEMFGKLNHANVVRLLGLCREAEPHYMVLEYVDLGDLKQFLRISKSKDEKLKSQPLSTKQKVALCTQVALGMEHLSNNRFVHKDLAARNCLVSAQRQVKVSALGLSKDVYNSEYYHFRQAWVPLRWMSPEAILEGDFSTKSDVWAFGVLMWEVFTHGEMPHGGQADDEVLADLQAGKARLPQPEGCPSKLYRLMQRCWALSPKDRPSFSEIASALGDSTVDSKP

Substance “Negative Control Ab (Table 8) (antibody)” has a Mean Fluorescent Intensity [1] of 2.7, a Mean Fluorescent Intensity [2] of 3.6 and a Mean Fluorescent Intensity [3] of 4.9. It also gave a Mean Fluorescent Intensity [4] of 11.2, a Mean Fluorescent Intensity [5] of 8.3 and a Mean Fluorescent Intensity [6] of 17.8. It also gave a Mean Fluorescent Intensity [7] of 5.8, a Mean Fluorescent Intensity [8] of 5 and a Mean Fluorescent Intensity [9] of 4.6. For the same substance, the Mean Fluorescent Intensity [10] was 54.7, the Mean Fluorescent Intensity [11] was 29.8 and the Mean Fluorescent Intensity [12] was 3.5. The Mean Fluorescent Intensity [13] was 8.5, the Mean Fluorescent Intensity [14] was 6.2 and the Mean Fluorescent Intensity [15] was 20.3. It also gave a Mean Fluorescent Intensity [16] of 9.4, a Mean Fluorescent Intensity [17] of 4.8 and a Mean Fluorescent Intensity [18] of 9.9. It also gave a Mean Fluorescent Intensity [19] of 12.2 and a Mean Fluorescent Intensity [20] of 3.1.
